Assay results: patent US20130071431A1, “Method for Preserving Polypeptides Using A Sugar and Polyethyleneimine” (Stabilitech Ltd., priority 2008, published 2013)

Legend:
[1] = Luciferase luminescence assay after freeze-drying (Example 4); format: biochemical; conditions: freeze-dried in excipient of 1.092M sucrose, 0.0499M stachyose and 27 nM, 2.7 nM or 0.27 nM PEI
Experimental: The final concentrations of PEI and sugars were: • PEI: 27 nM, 2.7 nM or 0.27 nM • sucrose: 1.092 M, and • stachyose: 0.0499M.
All vials were set up in triplicate.
The vials contained a free-flowing freeze-dried powder. The powder was reconstituted by adding 1 ml PBS. […] Luciferase assay reagent was added to each well according to manufacturer's instructions and luminescence was read on a Synergy 2 luminometer.

[2] = Luciferase assay with luciferin reagent, freeze-dried with BSA (Example 10); format: biochemical
Experimental: Luciferase stock was purchased from Promega Corporation (code E1701) and consisted of 1 mg of purified protein at a concentration of 13.5 mg/ml, correlating to 2.13×10^−4M using an approximate molecular weight of 60 kDa. The stock was thawed and refrozen (untouched, without addition of any excipients) at −45° C. as 44 aliquots. These aliquots were subsequently used for all experiments.
Luciferin was purchased from Promega Corporation as a kit that also included ATP (code E1500). This kit shall henceforth be referred to as luciferin reagent and consisted of pairs of vials that required mixing before use. One vial contained a lyophilised powder and the other 10 ml of a frozen liquid. To produce stocks, these vials were mixed and then refrozen as 1 ml aliquots at −20° C. in standard 1.5 ml Eppendorf tubes. Vials and reconstituted luciferin reagent were stored at −20° C. in an opaque box and only removed under conditions of near-darkness. […]
The luciferase assay involved the mixing of various concentrations of luciferase with an undiluted aliquot of luciferin reagent in black opaque 96 well plates. The initial (linear) phase of this luminogenic reaction was then immediately quantified by a luminometer. As per the manufacturer's recommendation, luciferase samples were of a 100 μl volume and luminescence was initiated by addition of 100 μl of luciferin reagent. […]

In the case of “Luciferase: luciferase enzyme purchased from Promega (code E1701 in Example 10)”, the “thermal stability of luciferase (luminescence)” value [1] is reported as “improved thermal stability”, the “lyoprotectant effects of sugar mix and PEI on luciferase activity” value ([2]; both added together before freeze-drying) is reported as “synergistic” and the “lyoprotectant contribution of excipient component on luciferase activity” value ([2]; sugar mix or PEI added after freeze-drying) is reported as “wholly negates its contribution”.
